Results published in patent US20120294802A1 (published 2012).
Changes are numbered by the printed parent chain.

T1: human Calcitonin Gene Related Peptide alpha (C-terminal amide (-NH2 printed after the last residue F; the filing words it as 'the N-terminal phenylalanine is amidated'); 125I radiolabeled in the receptor binding assay of Example 6)
T1 peptide: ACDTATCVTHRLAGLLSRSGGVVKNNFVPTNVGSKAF

B1: Antibody Ab3 (antibody)
heavy: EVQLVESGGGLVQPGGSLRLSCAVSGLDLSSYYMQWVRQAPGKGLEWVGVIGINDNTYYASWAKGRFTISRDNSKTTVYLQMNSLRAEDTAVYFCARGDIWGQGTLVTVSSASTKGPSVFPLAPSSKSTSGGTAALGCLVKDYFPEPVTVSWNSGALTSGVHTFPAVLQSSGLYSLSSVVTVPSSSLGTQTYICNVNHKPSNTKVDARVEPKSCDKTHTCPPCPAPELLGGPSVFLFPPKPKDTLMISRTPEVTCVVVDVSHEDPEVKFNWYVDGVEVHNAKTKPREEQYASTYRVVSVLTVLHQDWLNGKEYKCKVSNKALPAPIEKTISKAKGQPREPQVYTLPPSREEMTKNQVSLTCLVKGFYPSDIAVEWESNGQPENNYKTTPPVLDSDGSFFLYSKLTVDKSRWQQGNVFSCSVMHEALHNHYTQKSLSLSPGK
light: QVLTQSPSSLSASVGDRVTINCQASQSVYDNNYLAWYQQKPGKVPKQLIYSTSTLASGVPSRFSGSGSGTDFTLTISSLQPEDVATYYCLGSYDCSSGDCFVFGGGTKVEIKRTVAAPSVFIFPPSDEQLKSGTASVVCLLNNFYPREAKVQWKVDNALQSGNSQESVTEQDSKDSTYSLSSTLTLSKADYEKHKVYACEVTHQGLSSPVTKSFNRGEC
B2: Antibody Ab2 (antibody)
heavy: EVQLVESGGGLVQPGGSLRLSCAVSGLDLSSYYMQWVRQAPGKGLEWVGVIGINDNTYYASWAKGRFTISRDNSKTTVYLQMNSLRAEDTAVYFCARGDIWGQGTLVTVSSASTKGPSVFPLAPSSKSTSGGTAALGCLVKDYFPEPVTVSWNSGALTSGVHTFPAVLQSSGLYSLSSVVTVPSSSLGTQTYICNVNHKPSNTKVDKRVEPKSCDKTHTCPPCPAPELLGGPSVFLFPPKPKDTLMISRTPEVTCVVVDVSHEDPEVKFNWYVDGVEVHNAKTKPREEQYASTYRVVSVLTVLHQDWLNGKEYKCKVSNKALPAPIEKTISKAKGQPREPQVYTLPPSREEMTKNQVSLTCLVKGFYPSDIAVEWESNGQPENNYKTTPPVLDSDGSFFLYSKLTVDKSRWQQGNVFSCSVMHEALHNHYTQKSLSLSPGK
light: B1 light
B3: Antibody Ab1 (antibody, V domains shown)
VH: QSLEESGGRLVTPGTPLTLTCTVSGLDLSSYYMQWVRQAPGKGLEWIGVIGINDNTYYASWAKGRFTISRASSTTVDLKMTSLTTEDTATYFCARGDIWGPGTLVTVSS
VL: QVLTQTASPVSAAVGSTVTINCQASQSVYDNNYLAWYQQKPGQPPKQLIYSTSTLASGVSSRFKGSGSGTQFTLTISDLECADAATYYCLGSYDCSSGDCFVFGGGTEVVVKR
B4: Antibody Ab4 (antibody, V domains shown)
VH: B3 VH with T22S, L26I, S30G, Q34N, D54G, N55A, R70K, A71T
VL: QVLTQTPSPVSAAVGSTVTINCQASQSVYHNTYLAWYQQKPGQPPKQLIYDASTLASGVPSRFSGSGSGTQFTLTISGVQCNDAAAYYCLGSYDCTNGDCFVFGGGTEVVVKR

Biological target: T1, human Calcitonin Gene Related Peptide …
Experiment: ELISA

Going from B1 to B2, the EC50 falls from 0.154 nM to 0.083 nM (1.9-fold). The second is the more potent here.

B3 and B4 are within 1.5-fold of each other in EC50: 0.103 nM for the first, 0.088 nM for the second.
